Measured values reported in the DeepSol protein solubility set.

Experiment: soluble on expression in E. coli; label from the status in PepcDB or PDB records

| Sequence | soluble on expression in E. coli |
| --- | --- |
| MNSQQEWEHAYSLAERMYNKQAPTKREELNPTERVICSRFETIFDYDPFKDEYTFRDQALLFSTPVQPKCRTVAEADLHELKENTAKLNIPMPSYINICPIYALLPFTVLVFNNSQHAHKSLSDDMERAAATFRNPHESEIVPGAMYIFKQKHGKAYRCIILSEDGDMNIPDAERKYLVAFIDNVQIVSVKQKTLFVSDQFSIKDYPCALHCARIVGISAIRKSYVSGMNQFILNFYDAKEKRKAGMFAFIYKLDKEEKKLVIDYPSLLGTPKTTSTEIRTAVGHQIVASKDPVSLTFEQLNKKEVPEFKYLNSTDDDSDVELDLIEHDTKSVNPVASSHPTSSSMDDCPYGRASIARAKDYQLRLPPHSQKGLSSSSLLGSSYPVSNSIKNDITKQSESNRADATNISFSSFESTKSDISPQNNQNVEETSTPTVPPNSTIQENEEDEIMSPASIIRAPSRLAGSLNKVSIERPNTPLPTSSKNSEHNMSEISTYEASSISSHHLVPQSPSVPKTNYTVPVVQRPLTAPEKFRDPFGGPGSSDILNTKMLCSEKNIVPSNKFGRQISPGKDDKNENYQYSRMETKPQTLFAPVLDENQRQSSSSNMMCQIPDISSVAQVGFL | not soluble |
| MEGLLMYDVHSKHADDFISHEEILETLAYADENKTNEALIDSILEKARLRKGLSHREASVLLACPIEEKNQEIYRLAEQIKKDFYGNRIVMFAPLYLSNYCVNGCTYCPYHLKNKHIARKQLTQEEIRKEVIALQDMGHKRLALEAGEDPVRNTIDYYLESIKTIYSIKHKNGAIRRVNINIAATTVDNYRLLKEAGIGTYILFQETYHKESYLALHPTGPKHDYNYHTEAMDRAMEGGIDDVGIGVLFGLDKYRYEFAGLLMHAEHLEAAFGVGPHTISVPRLRHADDINADEFDNGIDDDTFAKIVACIRIAVPYTGMIISTRESQKCRERVLHLGVSQISGGSRTSVGGYCEPEPDDAKSEQFDVSDTRTLDEVVRWLMEMDYIPSFCTACYREGRTGDRFMSLCKSGQIQNCCHPNALMTLKEYLMDYASPETKAIGDRLIDKEVLNVPNEKARAVVLENLRLIEQNNRRDFRF | not soluble |
| MGSDKIHHHHHHENLYFQGMTKAIQSSVQVGELATGQALTVPIYSFMGSENSAPSVYIQANVHGAEVQGNAVIYQLMTLLEGYQVLGDITLAPLANPLGINQKSGEFTLGRFDPITGVNWNREYFDHNVDIQNWYAEHQHLTNSELFCAYRSMLVETCQARLTHSFGISTGHRLAVNLQAMAHQADIVLDLHTGPKSCKHLYCPEYDIDAARFFSIPYTLIIPNSFGGAMDEATFCPWWQLTEYATSQGREFSVPVSAFTLELASQERIDLADALEDAKGILAYLSHRGVIAEKVNPASMERFGCYLKDYKKFHAPKAGLIEYCASVGEPLTAGKPLVNILRIDLYGSEQAYQAISLPMDCVPILHFASASVLQGTELYKVMTNVFPLQPS | soluble |
| MTSTSTPPGLARFNDLGEHAALAALHEACASTTWARRLIAARPYATADDLYTASDAAMAELTAADLAQAMAGHPPIGRPKPGDPTSAREQRGMAGASEELKADMLELNLAYQEKFGHVFLICATGRTGEQMRDAVRERIGNAPEREREIVRTELGKINRIRLARLVEEDAHALEHHHHHH | soluble |
| MQNDVFFDLTQHGFSEDEASQLMVYGQELELPTRHILSHQGEFSSHIYFILEGLCHASYLTEKGKEFSKEFYWEKDWVIGFESVIKGQPSPYLLETLTACHLFCLPIEALHQWRAEKHSIYLKLLETQLMNKENKERFMLLYSPEERYQLFCHHYPDLEQRITDSQIAAYLGITAISLSRIKARLAKDNK | not soluble |
| AIASKKKGLSFDDKRTRMLEIFTESKTFFTLKELEKVAPKQKGIVLPSVKEVLQSLVDDDVVSSDKCGTQTVYWCLPSQAVQKKRCRIASLTEHLQAKYALRQQLFQRRDELRNSHQDTEERTHFIEQINELESKLKLIQEQLDIYKESDPEVLAEIRNVSHIAWEATNRWTDNIFSIRSWVTSKFGLPSSEFDKNFGLSEDFDYI | soluble |
| MEYTQIPSFALYNNASIFQFFPRNKRLSTHQKSCLDEHARKMAVFMMERQEEYRYYENLANQEQFSDDACFSDTGMDSGFCSGDTSTGQSASTSPAPAHLIPNPFFDPEYVASKTTMKLVANPFYNPKLAKEIKKKSTHTSKFQ | not soluble |
| MKAARQQAIVDLLLNHTSLTTEALSEQLKVSKETIRRDLNELQTQGKILRNHGRAKYIHRQNQDSGDPFHIRLKSHYAHKADIAREALAWIEEGMVIALDASSTCWYLARQLPDINIQVFTNSHPICHELGKRERIQLISSGGTLERKYGCYVNPSLISQLKSLEIDLFIFSCEGIDSSGALWDSNAINADYKSMLLKRAAQSLLLIDKSKFNRSGEARIGHLDEVTHIISDERQVATSLVTA | soluble |
| MNYAEICIIKRDGKREDFSISKIKNAVSKAFSATGINDEQQLIADITMNVIGQFASPTITVEEIQDLVEKELMKVRPEVAKKYIIYREWRNTERDKKTQMKHVMDGIVAIDKNDVNLSNANMSSHTPAGQMMTFASEVTKDYTYKYLLPKRFAEAHQLGDIHIHDLDYYPTKTTTCIQYDMDDLFERGFRTKNGSIRTPQSIQSYATLATIIFQTNQNEQHGGQAIPAFDFFMAKGVSKSFRKHLASFISFYVQMNKGEEIEEKAIRTVIAEHLSSIKASELERETLRMALTALQINIDKEHLNQIIEKAFVQTQKDTHQAMEGFIHNLNTMHSRGGNQVVFSSINYGTDTSAEGRMVIEELLKATVEGLGTRGEVPVFPIQIFKIKNGVSYTEADYEKAMANFDAAMEGKLKFEAPNFDLFLKACHTTAKALFPNFMFLDAPFNQNEKWDANDPQRYRYELATMGCRTRVFENVAGEKSSLGRGNLSFTTLNMPRLAIEARIKAENMTEDGHNKDAVERKAKEIFIESIHETATLIAEQLYERYQYQRTALARQFPFMMGNDVWKGGAALNPNEQVGDVLRSGTLGIGFLGGHNAMVALYGEGHGHSQKAWDTLYEAVLEINKVADEYKAKYNLNYSVLATPAEGLSGRFTRMDRRKYGKIKGVTDNDYYVNSFHVDVKEPISIVEKIKREAPFHAITRGGHITYVELDGEAQKNVRAIAKIVKVMFDEGIGYGSINHPVDTCHNCGYKGVIYDKCPVCQSENILRMRRITGYLTGDLSSWNSAKRAEEKDRVKHG | not soluble |
| MSLAFHEGLAAHLATGVTTTCHAWAIDRADGVVMGFTDHDRGLVFEGIDFRADSGLSALALQRGTGLAVDNSEAIGALTDAAIREADIDAGRFDGAGVRAWLVNWTDVAQRQLMFRGTIGEIRRAGGAFTAELRGLTEALNQPRGRVYQTPCGAVLGDAACGVDLGAPGYAAEAEVLGVEEGQRLVLPGLPDFEAGWFARGRLVVLDGAAEGLSGVVKRDVIAEGARHVDLWQALRAPLSVGDRIRIEAGCDKRMETCRYKFNNLLNYQGFPDIPGEDWMTVMPAQSGATGGGSRREGHHHHHH | soluble |
| RAIFKISVAKEKEKMDSLEHNDDNQAIALSLVVKNPAVFSKTLAEVRQLLKGHDYVISRTMDSRTNSISLAHSDTVLNENDRVFVITNPQNTAVISSFIGTEVQMDRKQWIPTESHLVSRRFIVTKSELNGKTLGSLQLRKMHGMNVTRVNRAGVEMVALASLPLQVGDRLTVVGSELVMPKVEELIGNSVKRLNEPN | soluble |
| MSLWKNTIHSISSNLSLKNPATKDELTDIQKCLHVELPNDLYQLLQETNGIEGEYGDFIWSASKIKTENMSMRNIVDFKDLYMPFDCLLFFADGGNGDLFGYSILNGKVQRDDIYVWNHENDSRTWVALSLKTFMEWWESGKITIEGHHHHHH | soluble |
| MGSDKIHHHHHHMSNSDPIERFFRSGLKLPHLRILVSLADLGQVTRVAAAFHVTQPAISKQIAEIEDALGVAVVNRVGNALELTGIGQVIVSCGREVLRHIELAKRDVSALASGTAGHVRVGAVVTIPEPLIANSVQLFIRRAPSASLSFAESTLDRLIRMMDDGELDIALGRNRIAGANSAQSTLKQEILHREPFVFVAGAHHPLGDPDRPTTWADLRGCRWITPMHGSPAYATLVEALAVHDLTPDPGAVESSSLALNVALIRSGDFVSILPMSVARPQVMRGNMRVLPLPPLQPLGEIVAYWRLGSTTPAAQLFNACLKEVSSDLLGERIEAG | not soluble |
| MGHVLIEMMGIKKGDFVLDVGCGTGRQALNVAGIIGPAGKLTGIDPSSYRIELARKKFEGDSSGNVRFLVRQAENLQDIPDNSINHAYFCSSFHWVDDKKTALNEIFRVLRPGGKVGMTTLDRNSPNTMKALIDPILAKFGIERRHEWHRGMKKVTAPELHDLLSGAGFTSISIEPRAVPRKYNSPEEFLQHPEEKDSSRGILRDISNETLEKLRQEITEEFRKAQTPEDIGFGNITLFAIATKAQEGLEHHHHHH | soluble |
| MCFWPVWNGKHCPHSTGMPATLPGHRKPTFSWPVSISVMKMPDTHTMVATVSRRILPGKPRQCFSLAVLILPLLEHGGYAITELTVTRRNTCGYSFVSGCPTVFSSRDLVGSGEEVRQARDTFLYINTDPTQGWIHYEPAAFSAGAQNKHLPMASLTGSGKHPAAARLNPVSRGPQFITVSLIIALLGTAWYGWQYYERWQTEKAAQAAVARQATEERITPPWPGLPETDAFIRGCADIWTSLPLSAAGWRYSLAECSTDGGSGNLRASYTNTAGATVTDFIRRISDMTDSRPFIVMPEGKTGGIGLPVTFRLSENAVTVDALPETAVLQERLTSLAQSMQLKLDWQEVNNSVTDENGQIIQPPWKEYDLQIQTTLPAHHLAERLKEPSVRFISVTRQLENGRFHYQFTGKYYARLEHHHHHH | not soluble |
| MVAGNSAHEMVSILNQNRTARKLGKLNESPGLGCMALQYVELCEGNCNVNNTLSCEHPEDDFTQVFAPNCGVELPTFGTITGHILGCSSKYAAPEVAFSDILFRDSSALSVLRNRSHTEVGVGMARLHKGTFFWCLLFSDGVKNSSFVLEDNGRGIKQRTGCYSGSAFPCSSNAHMICMRLLNSFLGLLFSSFCLFEKHLKF | soluble |
| MVRVIIKGGVWKNTEDEILKAAIMKYGKNQWSRIASLLHRKSAKQCKARWFEWLDPGIKKTEWSREEDEKLLHLAKLMPTQWRTIAPIVGRTSAQCLERYEHLLDEAQRKAEGLDEEATETRKLKPGEIDPTPETKPARPDPIDMDDDELEMLSEARARLANTQGKKAKRKARERQLSDARRLASLQKRREMRAAGLAFARKFKPKRNQIDYSEEIPFEKHVPAGFHNPSEDRYVVEDANQKAIEDHQKPRGREIEMEMRREDREKLKKRKEQGEADAVFNIKEKKRSKLVLPEPQISDRELEQIVKIGHASDSVRQYIDGTATSGLLTDYTESARANAVAARTMRTPMLKDTVQLELENLMALQNTESALKGGLNTPLHESELGKGVLPTPKVAATPNTVLHAIAATPGTQSQFPGSTPGGFATPAGSVAATPFRDQMRINEEIAGSALEQKASLKRALASLPTPKNDFEVVGPDDDEVEGAVEDESNQDEDGWIEDASERAENKAKRNAENRVRNMKMRSQVIQRSLPKPTKVNEQATRATNSSADDMVKAEMSKLLAWDVDNKPPSVIYSREELDAAADLIKQEAESGPELNSLMWKVVEQCTSEIILSKDKFTRIAILPREEQMKALNDEFQMYRGWMNQRAKRAAKVEKKLRVKLGGYQAIHDKLCKKYQEVTTEIEMANIEKKTFERLGEHELKAINKRVGRLQQEVTTQETREKDLQKMYSKLSNKQWKLSQIEIHDAASTTSAPITY | not soluble |
| GGDKQEAPITKNSIAGGQSESANSTMPGIVVPIISAETSHAAGNADPDVPDTAPLAIDTALESAWQPAKGDTLVLNFAQPYVISRVIVDSPTKDMTLEVRAGDTVVGTGTVTKSRTKITVTPAPAVTSLSIRVVGVPDGVSPEINDVKLVAKI | not soluble |
